The subject of assay [1] is preosteoclasts. The experiment in a line: Induction of differentiation of preosteoclasts (from joint fluid of rheumatoid arthritis patients) into osteoclasts in the absence of accessory cells. In kind it is cell-based. As to conditions: cytokine in place of human T-STIM in the medium, 37° C., 48-96 hours, no accessory cells. The method, then: The obtained cellular fraction was cultured in DMEM medium (Gibco BRL, #12430-21 or equivalent) supplemented with 10% (v/v) of fetal calf serum (FCS) in 5-7% CO2-containing air at 37° C. for several weeks. […]
Human T-STIM contains a variety of cytokines. In order to identify the cytokine which stimulates differentiation of preosteoclasts into osteoclasts, the differentiation was examined by modifycation the contents of Medium A described as previously in Example 1(3).
The following 16 kinds of medium (B-R) were prepared by using the cytokines shown below, alone or a mixture thereof, instead of human T-STIM contained in Medium A (Example 1(3)). […] Recombinant baculovirus containing the sequence was prepared to infect insect cells, then the recombinant eotaxin-3 protein was purified from the culture supernatant.)
The preosteoclasts obtained by Example 1(2) were cultured in the Medium […] described above at 37° C. for 48-96 hours.

In assay [2] the test system is preosteoclasts. The settings on record: differentiation requiring the presence of accessory cells; cited from earlier work.

“Also recorded” adds a separate entry of the source.

Regarding “eotaxin: recombinant human eotaxin (R & D Systems)”, the “ability for inducing the differentiation of preosteoclasts” value (shortened to “ability for inducing the differentiation”) in the assay on preosteoclasts [1] is “have an ability for inducing the differentiation of preosteoclasts”.

“GM-CSF: recombinant human GM-CSF (R & D Systems)”: the “ability for inducing the differentiation” value in the assay with preosteoclasts [1] is recorded as “have an ability for inducing the differentiation of preosteoclasts”.

Consider “IL-6: recombinant human IL-6 (R & D Systems)”, for which the “ability for inducing the differentiation” value in the assay on preosteoclasts [1] was “do not have an ability for inducing the differentiation of preosteoclasts; also recorded: does not effect to the differentiation”. Further, in the assay on preosteoclasts [2], the “induction of the differentiation of preosteoclasts into osteoclasts” value is “induce the differentiation of preosteoclasts into osteoclasts”.

B1: M-CSF: recombinant human M-CSF (R & D Systems) (protein, UniProt P09603 33-554, looked up)
Macrophage colony-stimulating …: EEVSEYCSHMIGSGHLQSLQRLIDSQMETSCQITFEFVDQEQLKDPVCYLKKAFLLVQDIMEDTMRFRDNTPNAIAIVQLQELSLRLKSCFTKDYEEHDKACVRTFYETPLQLLEKVKNVFNETKNLLDKDWNIFSKNCNNSFAECSSQDVVTKPDCNCLYPKAIPSSDPASVSPHQPLAPSMAPVAGLTWEDSEGTEGSSLLPGEQPLHTVDPGSAKQRPPRSTCQSFEPPETPVVKDSTIGGSPQPRPSVGAFNPGMEDILDSAMGTNWVPEEASGEASEIPVPQGTELSPSRPGGGSMQTEPARPSNFLSASSPLPASAKGQQPADVTGTALPRVGPVRPTGQDWNHTPQKTDHPSALLRDPPEPGSPRISSLRPQGLSNPSTLSAQPQLSRSHSSGSVLPLGELEGRRSTRDRRSPAEPEGGPASEGAARPLPRFNSVPLTDTGHERQSEGSFSPQLQESVFHLLVPSVILVLLAVGGLLFYRWRRRSHQEPQRADSPLEQPEGSPLTQDDRQVELPV
On to B1, for which the “ability for inducing the differentiation” value in the assay on preosteoclasts [1] was “do not have an ability for inducing the differentiation of preosteoclasts; also recorded: does not effect to the differentiation”. Also, in the assay on preosteoclasts [2], the “induction of the differentiation of preosteoclasts into osteoclasts” value is “induce the differentiation of preosteoclasts into osteoclasts”.

B2: IL-7: recombinant human IL-7 (Genzyme) (protein, UniProt P13232 26-177, looked up)
Interleukin-7: DCDIEGKDGKQYESVLMVSIDQLLDSMKEIGSNCLNNEFNFFKRHICDANKEGMFLFRAARKLRQFLKMNSTGDFDLHLLKVSEGTTILLNCTGQVKGRKPAALGEAQPTKSLEENKSLKEQKKLNDLCFLKRLLQEIKTCWNKILMGTKEH
As to B2, the “ability for inducing the differentiation” value with preosteoclasts [1] was “have an ability for inducing the differentiation of preosteoclasts”.

B3: IL-4: recombinant human IL-4 (Genzyme) (protein, UniProt P05112 25-153, looked up)
Interleukin-4: HKCDITLQEIIKTLNSLTEQKTLCTELTVTDIFAASKNTTEKETFCRAATVLRQFYSHHEKDTRCLGATAQQFHRHKQLIRFLKRLDRNLWGLAGLNSCPVKEANQSTLENFLERLKTIMREKYSKCSS
On to B3, for which the “ability for inducing the differentiation” value in the assay with preosteoclasts [1] is “do not have an ability for inducing the differentiation of preosteoclasts”.

B4: IL-11: recombinant human IL-11 (R & D Systems) (protein, UniProt P20809 22-199, looked up)
Interleukin-11: PGPPPGPPRVSPDPRAELDSTVLLTRSLLADTRQLAAQLRDKFPADGDHNLDSLPTLAMSAGALGALQLPGVLTRLRADLLSYLRHVQWLRRAGGSSLKTLEPELGTLQARLDRLLRRLQLLMSRLALPQPPPDPPAPPLAPPSSAWGGIRAAHAILGGLHLTLDWAVRGLLLLKTRL
Consider B4, for which the “ability for inducing the differentiation” value with preosteoclasts [1] is given as “do not have an ability for inducing the differentiation of preosteoclasts; also recorded: does not effect to the differentiation”. In addition, the “induction of the differentiation of preosteoclasts into osteoclasts” value with preosteoclasts [2] is reported as “induce the differentiation of preosteoclasts into osteoclasts”.

B5: eotaxin-2: recombinant human eotaxin-2 (R & D Systems) (protein, UniProt O00175 27-119, looked up)
C-C motif chemokine 24: VVIPSPCCMFFVSKRIPENRVVSYQLSSRSTCLKAGVIFTTKKGQQFCGDPKQEWVQRYMKNLDAKQKKASPRARAVAVKGPVQRYPGNQTTC
For the molecule B5, the “ability for inducing the differentiation” value in the assay with preosteoclasts [1] is reported as “have an ability for inducing the differentiation of preosteoclasts”.

B6: eotaxin-3: human CC type chemokine, amino acid sequence SEQ ID No.:2; recombinant protein from baculovirus-infected insect cells (protein, listed as Homo sapiens)
chain: MMGLSLASAVLLASLLSLHLGTATRGSDISKTCCFQYSHKPLPWTWVRSYEFTSNSCSQRAVIFTTKRGKKVCTHPRKKWVQKYISLLKTPKQL
For the molecule B6, the “ability for inducing the differentiation” value in the assay on preosteoclasts [1] is given as “have an ability for inducing the differentiation of preosteoclasts”.

Source of the values: US6861257B1, “Methods for isolation of osteoclast precursor cells and inducing their differentiation into osteoclasts” (Shionogi & Co., Ltd., priority 1998, dated 2005).
